Laboratory results: patent US8409836B2, “Treatment of cellulosic material and enzymes useful therein” (Roal Oy, priority 2005, dated 2013)

Experiments:
[1] = Xylanase activity on birch xylan; assay type: biochemical
Protocol: (§1) The specific activity of the preparations was determined using 4-methylumbelliferyl-β-D-lactoside (MUL), 4-methylumbelliferyl-β-D-cellobioside (MUG2) or 4-methylumbelliferyl-β-D-cellotrioside (MUG3) as substrate (van Tilbeurgh et al., 1988) in 0.05 M sodium citrate buffer pH 5 at 50° C. for 10 min. Endoglucanase and xylanase activities were determined by standard procedures (according to IUPAC, 1987) using carboxymethyl cellulose (CMC) and birch glucuronoxylan (Bailey et al., 1992) as substrates. Specific activity against Avicel was calculated on the basis of reducing sugars formed in a 24 h reaction at 50° C., pH 5.0, with 1% substrate and 0.25 μM enzyme dosage. The protein content of the purified enzyme preparations was measured according to Lowry et al., 1951. To characterize the end products of hydrolysis, soluble sugars liberated in 24 h hydrolysis experiment, as described above, were analysed by HPLC (Dionex). Purified cellobiohydrolase I (CBHI/Cel7A) of Trichoderma reesei was used as a reference.
Acremonium thermophilum ALKO4245 was grown as described in Example 1. The culture supernatant was incubated at 70° C. for 24 hours after which, it was concentrated by ultrafiltration. The pure xylanase was obtained by sequential purification with hydrophobic interaction and cation exchange chromatography followed by gel filtration. The xylanase activity was determined using birch xylan as substrate (procedure of IUPAC 1987). Protein was assayed by BioRad Protein Assay Kit (Bio-Rad Laboratories) using bovine serum albumin as standard.
Thermoascus aurantiacus ALKO4242 was grown as described in Example 1. The pure xylanase was obtained by sequential purification with hydrophobic interaction, anion, and cation exchange chromatography followed by gel filtration. The xylanase activity was determined using birch xylan as substrate (procedure of IUPAC 1987). Protein was assayed by BioRad Protein Assay Kit (Bio-Rad Laboratories) using bovine serum albumin as standard.

[2] = Specific activity on MUG2; assay type: biochemical; conditions: purified xylanase, 50° C. pH 5.0 10 min
Protocol: as §1

[3] = Specific activity on MUG3; assay type: biochemical; conditions: purified xylanase, 50° C. pH 5.0 10 min
Protocol: as §1

Specific activity on MUL = assay type: biochemical; conditions: purified xylanase, 50° C. pH 5.0 10 min
Protocol: as §1

[4] = substrate: O=[N+]([O-])c1ccc(O[C@@H]2O[C@H](CO)[C@@H](O[C@@H]3O[C@H](CO)[C@H](O)[C@H](O)[C@H]3O)[C@H](O)[C@H]2O)c(Cl)c1; assay: Michaelis-Menten kinetic constants on CNPLac; assay type: biochemical, Chaetomium thermophilum; conditions: other: Ct Cel7A, 50 mM sodium phosphate pH 5.7, 22° C.
Protocol: (§2) The Michaelis-Menten and cellobiose inhibition constants were determined from the cellobiohydrolases produced heterologously in T. reesei (Examples 14 and 15). The enzymes were purified as described in Example 2. Protein concentrations of purified enzymes were measured by their absorption at 280 nm using a theoretical molar extinction co-efficient, which were calculated from the amino acid sequences (Gill and von Hippel, 1989).
(§3) Kinetic constants (Km and kcat values) and cellobiose inhibition constant (Ki) for Tr CBHI/Cel7A, Ta CBH/Cel7A, At CBH/Cel7A and Ct CBH/Cel7A, were measured using CNPLac (2-Chloro-4-nitrophenyl-β-D-lactoside) as substrate at ambient temperature (22° C.) in 50 mM sodium phosphate buffer, pH 5.7. For the determination of the inhibition constant (Ki), eight different substrate concentrations (31-4000 μM) in the presence of a range of five inhibitor concentrations (0-100 μM or 0-400 μM), which bracket the Ki value, were used. All experiments were performed in microtiter plates and the total reaction volume was 200 μl. The initial rates were in each case measured by continuous monitoring the release of the chloro-nitrophenolate anion (CNP, 2-Chloro-4-nitrophenolate) through measurements at 405 nm using Varioscan (Thermolabsystems) microtiter plate reader. The results were calculated from CNP standard curve (from 0 to 100 μM). Enzyme concentrations used were: Tr CBHI/Cel7A 2.46 μM, Ta CBH/Cel7A 1.58 μM, Ct CBH/Cel7A 0.79 μM and At CBH/Cel7A 3 μM. The Km and kcat constants were calculated from the fitting of the Michaelis-Menten equation using the programme of Origin. Lineweaver-Burk plots, replots (LWB slope versus [Glc2; cellobiose]) and Hanes plots were used to distinguish between competitive and mixed type inhibition and to determine the inhibition constants (Ki).

[5] = pH optimum of recombinant CBH/Cel7 proteins; assay type: biochemical; conditions: McIlvaine buffer, pH range 3.0-8.0, MUL, 50° C., 10 min
Protocol: The recombinant CBH/Cel7 enzyme preparations were characterized in terms of pH optimum and thermal stability. The pH optimum of the recombinant CBH/Cel7 proteins from Thermoascus aurantiacus, Chaetomium thermophilum, and Acremonium thermophilum were determined in the universal McIlvaine buffer within a pH range of 3.0-8.0 using 4-methylumbelliferyl-β-D-lactoside (MUL) as a substrate (FIG. 3A). The pH optimum for Ct Cel7A and At Cel7A enzymes is at 5.5, above which the activity starts to gradually drop. The pH optimum of the recombinant crude Ta Cel7A is at 5.0 (FIG. 3A). Thermal stability of the recombinant Cel7 enzymes was determined by measuring the MUL activity in universal McIlvaine buffer at the optimum pH with reaction time of 1 h.

[6] = Hydrolysis with CBH enzyme mixtures, Avicel; assay type: biochemical; conditions: additional enzymes EGII, bG; 48 h, 45° C., pH 5.0
Protocol: (§4) The performance of the purified recombinant cellobiohydrolases was evaluated in the hydrolysis studies with purified T. reesei enzymes. Hydrolysis was carried out with controlled mixtures of purified enzymes on several pre-treated substrates. […] In addition, pure T. reesei cellulases (purified as described by Suurnäkki et al., 2000) were used in the enzyme mixtures. The cellobiohydrolases used in the experiment were:
(§5) Each CBH/Cel7 to be tested (dosage 14.5 mg/g dry matter of substrate) was used either together with EGII/Cel5A of T. reesei (3.6 mg/g) or with a mixture containing T. reesei EGI/Cel7B (1.8 mg/g), EGII/Cel5A (1.8 mg/g), xylanase pI 9 (Tenkanen et al. 1992) (5000 nkat/g) and acetyl xylan esterase (AXE) (Sundberg and Poutanen, 1991) (250 nkat/g). All mixtures were supplemented with additional β-glucosidase from a commercial enzyme preparation Novozym 188 (176 nkat/g d.w.). Triplicate tubes containing the enzyme mixture and 10 mg (dry matter)/ml of the substrate suspended in 0.05 M sodium acetate were incubated in mixing by magnetic stirring at 45° C. for 48 h. Reference samples with inactivated enzymes and corresponding substrates were also prepared. The release of hydrolysis products was measured as reducing sugars with DNS method using glucose as standard (Table 30).
Crystalline cellulose (Avicel)

[7] = Hydrolysis with CBH enzyme mixtures, spruce; assay type: biochemical; conditions: additional enzymes EGII, bG; 48 h, 45° C., pH 5.0
Protocol: as §4, §5
Washed steam pre-treated spruce fibre (impregnation with 3% w/w SO2 for 20 min, followed by steam pre-treatment at 215° C. for 5 min), dry matter 25.9% (SPRUCE).

[8] = Hydrolysis with CBH enzyme mixtures, corn stover; assay type: biochemical; conditions: additional enzymes EGII, bG, 48 h, 45° C., pH 5.0
Protocol: as §4, §5
Washed wet oxidized corn stover fibre (WOCS).

[9] = Hydrolysis with CBH enzyme mixtures, willow; assay type: biochemical; conditions: additional enzymes EGII, bG, 48 h, 45° C., pH 5.0
Protocol: as §4, §5
Washed steam pre-treated willow fibre (pre-treatment for 14 min at 210° C.), dry matter 23.0% (WILLOW).

[10] = substrate: O=[N+]([O-])c1ccc(O[C@@H]2O[C@H](CO)[C@@H](O[C@@H]3O[C@H](CO)[C@H](O)[C@H](O)[C@H]3O)[C@H](O)[C@H]2O)c(Cl)c1; assay: Michaelis-Menten kinetic constants on CNPLac; assay type: biochemical, Trichoderma reesei; conditions: other: Tr Cel7A, 50 mM sodium phosphate pH 5.7, 22° C.
Protocol: as §2, §3

B1: At XYN_60: xylanase of Acremonium thermophilum ALKO4245, gene At xyn10A, amino acid SEQ ID NO: 20 (protein)
chain: MRAKQLLAAGLLAPASVSAQLNSLAVAAGLKYFGTAVREANVNGDATYMSYVNNKSEFGQVTPENGQKWDSTEPSQGQFSYSQGDIVPGVAKKNGQVLRCHTLVWYSQLPSWVSSGSWTRATLQSVIETHISNVMGHYKGQCYAWDVVNEAINDDGTWRTSVFYNTFNTDYLAIAFNAAKKADAGAKLYYNDYNLEYNGAKTNTAVQLVQIVQQAGAPIDGVGFQGHLIVGSTPSRSSLATALKRFTALGLEVAYTELDIRHSSLPPSSAALATQGNDFASVVGSCLDVAGCVGITIWGFTDKYSWVPDTFPGSGAALLYDANYSKKPAWTSVSSVLAAKATNPPGGGNPPPVTTTTTTTTTSKPSQPTTTTTTTSPQGPQQTHWGQCGGIGWTGPQSCQSPWTCQKQNDWYSQCL
[1]; 10 min, pH 5.0
  Relative activity at 60° C. as compared to 50° C.: about 1.2 fold
  Relative activity at 70° C. as compared to 50° C.: ~1.65 fold
[1]; purified xylanase, 50° C., procedure of IUPAC 1987
  Specific activity on birch xylan: 1800 nkat/mg
[2]
  Specific activity against MUG2: 54 nkat/mg
[3]
  Specific activity against MUG3: 78 nkat/mg
Specific activity on MUL
  Specific activity against MUL: 33 nkat/mg

B2: Chaetomium thermophilum ALKO4265 cellobiohydrolase Ct Cel7A (Ct CBH/Cel7A), recombinant, SEQ ID NO: 8 (Thermochaetoides thermophila) (protein)
chain: QQACSLTAENHPSLTWKRCTSGGSCSTVNGAVTIDANWRWTHTVSGSTNCYTGNQWDTSLCTDGKSCAQTCCVDGADYSSTYGITTSGDSLNLKFVTKHQYGTNVGSRVYLMENDTKYQMFELLGNEFTFDVDVSNLGCGLNGALYFVSMDADGGMSKYSGNKAGAKYGTGYCDAQCPRDLKFINGEANVGNWTPSTNDANAGFGRYGSCCSEMDVWEANNMATAFTPHPCTTVGQSRCEADTCGGTYSSDRYAGVCDPDGCDFNAYRQGDKTFYGKGMTVDTNKKMTVVTQFHKNSAGVLSEIKRFYVQDGKIIANAESKIPGNPGNSITQEYCDAQKVAFSNTDDFNRKGGMAQMSKALAGPMVLVMSVWDDHYANMLWLDSTYPIDQAGAPGAERGACPTTSGVPAEIEAQVPNSNVIFSNIRFGPIGSTVPGLDGSNPGNPTTTVVPPASTSTSRPTSSTSSPVSTPTGQPGGCTTQKWGQCGGIGYTGCTNCVAGTTCTQLNPWYSQCL
[4]
  Km: 1960 µM
  kcat: 0.313 s⁻¹
  kcat/Km: 158 M⁻¹ s⁻¹

B3: Ta Cel7A: cellobiohydrolase of Thermoascus aurantiacus ALKO4242, gene Ta cel7A, amino acid SEQ ID NO: 2, no CBD (protein)
chain: MYQRALLFSFFLAAARAQQAGTVTAENHPSLTWQQCSSGGSCTTQNGKVVIDANWRWVHTTSGYTNCYTGNTWDTSICPDDVTCAQNCALDGADYSGTYGVTTSGNALRLNFVTQSSGKNIGSRLYLLQDDTTYQIFKLLGQEFTFDVDVSNLPCGLNGALYFVAMDADGGLSKYPGNKAGAKYGTGYCDSQCPRDLKFINGQANVEGWQPSANDPNAGVGNHGSCCAEMDVWEANSISTAVTPHPCDTPGQTMCQGDDCGGTYSSTRYAGTCDPDGCDFNPYRQGNHSFYGPGQIVDTSSKFTVVTQFITDDGTPSGTLTEIKRFYVQNGKVIPQSESTISGVTGNSITTEYCTAQKAAFGDNTGFFTHGGLQKISQALAQGMVLVMSLWDDHAANMLWLDSTYPTDADPDTPGVARGTCPTTSGVPADVESQYPNSYVIYSNIKVGPINSTFTAN
[5]
  pH optimum: 5.0
[6]
  Hydrolysis products as reducing sugars, Avicel: 2.0 mg/mL
[7]
  Hydrolysis products as reducing sugars, SPRUCE: 2.0 mg/mL
[8]; EGI, XYL, AXE
  Hydrolysis products as reducing sugars, WOCS: 4.3 mg/mL
[8]
  Hydrolysis products as reducing sugars, WOCS: 2.8 mg/mL
[9]; EGI, XYL, AXE
  Hydrolysis products as reducing sugars, WILLOW: 2.8 mg/mL
[9]
  Hydrolysis products as reducing sugars, WILLOW: 2.0 mg/mL

B4: Trichoderma reesei cellobiohydrolase I Tr Cel7A (Tr CBHI/Cel7A) (Trichoderma reesei RUT C-30) (protein)
chain: QSACTLQSETHPPLTWQKCSSGGTCTQQTGSVVIDANWRWTHATNSSTNCYDGNTWSSTLCPDNETCAKNCCLDGAAYASTYGVTTSGNSLSIGFVTQSAQKNVGARLYLMASDTTYQEFTLLGNEFSFDVDVSQLPCGLNGALYFVSMDADGGVSKYPTNTAGAKYGTGYCDSQCPRDLKFINGQANVEGWEPSSNNANTGIGGHGSCCSEMDIWEANSISEALTPHPCTTVGQEICEGDGCGGTYSDNRYGGTCDPDGCDWNPYRLGNTSFYGPGSSFTLDTTKKLTVVTQFETSGAINRYYVQNGVTFQQPNAELGSYSGNELNDDYCTAEEAEFGGSSFSDKGGLTQFKKATSGGMVLVMSLWDDYYANMLWLDSTYPTNETSSTPGAVRGSCSTSSGVPAQVESQSPNAKVTFSNIKFGPIGSTGNPSGGNPPGGNPPGTTTTRRPATTTGSSPGPTQSHYGQCGGIGYSGPTVCASGTTCQVLNPYYSQCL
[10]
  Km: 520 µM
  kcat: 0.0433 s⁻¹
  kcat/Km: 83.3 M⁻¹ s⁻¹
